# Results from the domain aggregation screens of Martell et al. (2025).
# Assay: soluble fraction after stress (log2 fold change); higher = more stays soluble; pooled small domains, quantitative proteomics
# Details: stress: pH 4
# How it was run: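 Pooled custom libraries of small protein domains were subjected to pH 4 and measured by high-throughput quantitative proteomics. The log2 fold change in soluble amount per domain is reported, higher values meaning more remained soluble. This is used as a measure of aggregation propensity.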
row,Sequence,soluble fraction (log2)
1,HMFTEIMAERNALIQAIQQNLPPQHIQSILSKKNKFRLEDLTNEELRDVWQWILNQRQAQQHQQQ,-0.373
2,HMDVSPVRLIREARGLSQVEVAKAAGLSRAAYQNIEVGKTVPRASTMVNIARALGVSMDDLLAPV,0.0681
3,HMLETLVYPNPTTDKILLSSPVDYHLFSLKGELVLEGRGSSIEVSQLSKGVYFLNTKTQTFKIIK,-0.156
4,HMGVISRVITFWQNGFTVDDGPLRAFDDPANMAFMESIGRGEAPAELAPKTRTQRVNINLVQRHEPYSAPK,-0.934
5,HMLPAGAAAPLEDGSAPEGYTVKGNADSGLYHEPDGRWYDATVAEFWFKTAADAEAAGFRKAGS,-0.741
6,HMDNEYDKVYQAALSKLEGYPRSSITTAVIKDVVAQTIKYFEIKNFGYEDTIINQLQSAFTVKSSS,0.0114
7,HMSDLQTGDINQDGTVDEKDLSLLHSYNLELIKTISNAADLNEDGVINGLDEAYLKRLFLQNSDP,-0.142
8,HMFEATGKITGTEVSFRRKPTTDSERILFFDINTEFRVIGINNGWYKGVYQGKTGYVRSDFVEIVGG,-0.448
9,HMLDEKAVRQYLLNTLENSEIKMDRQAIDLFLRLTDLDLSKMMRELQKILLYGQEQEVITVKEIEQ,-1.17
10,HMAEPAEDLLSLEGMDKGLAYQLASNGVVTREDLAELATDDLLEIREMDAEQAAALIMKAREHWFEAEQQ,-1.94
11,HMKNEQIFIVRPDAEGTRLDQWLAAQMASSEEAPSRMQIQRWIKAGLVEGQGTLNPARRIEAGESYTVKPG,0.203
12,HMGEQETILKGDVNRDGVVDVNDVTHLQIHISNDDKNPLIDVTNKAWFDAADMYGDGKLDILDATALQIYI,-0.145
13,HMFTGELESRVFELNYVDGLVASAALAGVLTDKGSATPIASRAGGENDMLLVVDRIASYSQIEKIITQLD,-1.31
14,HMLRQVSDSNALETAVKKVLDANPEEVERYKSGNKKLISFFVGQTMKATKGAGNPKEINSILAKLL,0.201
15,HMGDPEYFKKQLGDFMDRFNITSEDIKNLSIAGAINRMMNNAEGEDKTVLSKLLETVNKSGVGNLPAKTI,-0.144
16,HMLTDMSKIRKVLKLYGKGNSKLFISTYLSLSRNTVKKYISLFEVSGKTIEEILAKSDSELELLFSG,-0.0775
17,HMIMPSDATEAKLLGVLGNEPLHVDEIRNQAELPIEKVSAALALMELKGMVRQVGGMNYVAVR,-0.263
18,HMTIELAEGQHFLQISKSGAPMGNVVRDLIIQTLKITNGNQIKAAKILGISRAKLRYRIEQLGINITGKNI,-0.0446
19,HMLRISLAAARVNAEMTQEDVAREMHVSKNTVVNWEKGKSEPTISQSRELSKLYNMPLEYIFYL,0.258
20,HMGVMNEYEELRDRYLTGQIWKIGDLVEAKGIEGKIIQRGTNYITFNDSQGKVHKAWLHEIKV,≥ 0.43
21,HMFKEVPVPDVKGMTLEEAKLALEKEGFILGKTEEAESTEVAAGKIISQNLEAGKIAKQGTSVNLVVSKGK,-0.0392
22,HMQRYFINEPVPEDQRLVLPKDIAHHLVDVLRAEQNDELEVALNDQKVYLARLISLNPATVELQSDLG,-0.176
23,HMSDPVDDLLLRISQQAGVARGQLVAELNMLVQDRFGGNLRHEAAAVLMAKRYGIEFRDLLPALREHLVKN,-0.469
24,HMEIPRYRLIGADGGRMVDLGEGQGAIPPVDVKRGMIDMPGLGKGYYTADGKSAVITNADGSKTRVL,0.304
25,HMKYNETEFKNLVAKLYNGEIEIVGKFTGLSYPILVKDKYGIMLSQKANLILNYRPTINIALNKTEYAMN,-0.4
26,HMAVGVFQKEDGYWGYRFSIIVDGKTIARRKFTDENGSKLRTKSEAVKARAAAMVAARMERVS,0.24
27,HMNMAVELEDGTQIFVFSEDGEFAGKRAVIADEEGRPTEENAPAGTHTLRDGRSIVVGEGGVIESVVET,-0.708
28,HMITLPDFVGKDVETVKAWAKENGITLIVNKVEDSAKKDTVISQTPTTYDYSKIMKGSSFTVNVAKE,0.0768
29,HMREVPHGEYEVKIEKLELVESKAGDPMVTVWFKVLAGDYKGSMIFMNQVITKGFQIHIMNEFLR,-1.1
30,HMSKQLGFKIKTARRKLNISQGDLSKKLEISPSYLNLIESGKRKVSTDLLMKASEILNLDLKKL,≥ 0.43
